T1: Rvs167 SH3 (RV167_YEAST), P39743
T1 chain: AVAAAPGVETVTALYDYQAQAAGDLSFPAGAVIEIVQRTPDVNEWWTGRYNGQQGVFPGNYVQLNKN

T2: Boi1 SH3 (BOI1_YEAST), P38041
T2 chain: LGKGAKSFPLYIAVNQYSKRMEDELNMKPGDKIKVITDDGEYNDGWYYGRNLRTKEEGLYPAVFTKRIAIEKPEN

T3: Boi2 SH3 (BOI2_YEAST), P39969
T3 chain: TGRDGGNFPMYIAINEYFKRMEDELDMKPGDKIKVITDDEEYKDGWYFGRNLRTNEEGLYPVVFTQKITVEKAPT

T4: Yfr024 SH3 (LSB3_YEAST), P43603
T4 chain: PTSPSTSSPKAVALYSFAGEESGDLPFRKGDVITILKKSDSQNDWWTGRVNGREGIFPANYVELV

T5: Myo5 SH3 (MYO5_YEAST), Q04439
T5 chain: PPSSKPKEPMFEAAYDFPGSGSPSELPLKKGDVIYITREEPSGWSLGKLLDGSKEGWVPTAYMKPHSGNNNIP

T6: Yhr016c SH3 (YSC84_YEAST), P32793
T6 chain: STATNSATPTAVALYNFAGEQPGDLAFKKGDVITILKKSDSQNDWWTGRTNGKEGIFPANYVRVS


What was measured:
Assay in all cases: SPOT array
[1] = target: T1, Rvs167 SH3 (RV167_YEAST), P39743
[2] = target: T2, Boi1 SH3 (BOI1_YEAST), P38041
[3] = target: T3, Boi2 SH3 (BOI2_YEAST), P39969
[4] = target: T4, Yfr024 SH3 (LSB3_YEAST), P43603
[5] = target: Sho1 SH3 (SHO1_YEAST), P40073
[6] = target: T5, Myo5 SH3 (MYO5_YEAST), Q04439
[7] = target: T6, Yhr016c SH3 (YSC84_YEAST), P32793

Chain of Sho1 SH3 (SHO1_YEAST), P40073 (P40073 295-366): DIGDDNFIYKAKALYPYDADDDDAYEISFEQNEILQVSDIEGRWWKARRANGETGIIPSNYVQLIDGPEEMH

| normalised SPOT signal, Boehringer light units (BLU); mean over the file's lines of this peptide [1] | normalised SPOT signal, Boehringer light units (BLU); mean over the file's lines of this peptide [2] | normalised SPOT signal, Boehringer light units (BLU); mean over the file's lines of this peptide [3] | normalised SPOT signal, Boehringer light units (BLU); mean over the file's lines of this peptide [4] | normalised SPOT signal, Boehringer light units (BLU); mean over the file's lines of this peptide [5] | normalised SPOT signal, Boehringer light units (BLU); mean over the file's lines of this peptide [6] | normalised SPOT signal, Boehringer light units (BLU); mean over the file's lines of this peptide [7] | Binder |
| --- | --- | --- | --- | --- | --- | --- | --- |
| 1330 | 46.7 | 3730 | 7740 | 2030 | 2100 | 1970 | WRWARDTPRAPGLH [YCR020C 147-160] |
| 2780 | 52300 | 1740 | 9510 | 3290 | 379 | 1880 | WEALKSVPIPPRKN [YJR113C 98-111] |
| 82 | 104 | 81.2 | 2790 | 38.9 | 96.8 | 140 | WENFKEEPGEPLSR [YMR227C 326-339] |
| 149 | 66.1 | 70.7 | 862 | 62.8 | 88.8 | 125 | WLGNKYDPENPFND [YBL088C 600-613] |
| 177 | 107 | 184 | 3060 | 191 | 240 | 278 | WLDEKRIPSTPVDY [YGR124W 196-209] |
| 892 | 115 | 1320 | 3220 | 132 | 81.2 | 1270 | WSQMRMNPTNPDWI [YPR074C 45-58] |
| 66.5 | 88.3 | 99.3 | 514 | 63.6 | 176 | 40.4 | YSPWKLSPLLPILY [YCR001W 27-40] |
| 897 | 11.5 | 962 | 1670 | 81.5 | 163 | 179 | WLDEKRIPSTPIDY [YPR145W 196-209] |

The remaining lines, values behind:

| Binder | normalised SPOT signal, Boehringer light units (BLU); mean over the file's lines of this peptide [1] | normalised SPOT signal, Boehringer light units (BLU); mean over the file's lines of this peptide [2] | normalised SPOT signal, Boehringer light units (BLU); mean over the file's lines of this peptide [3] | normalised SPOT signal, Boehringer light units (BLU); mean over the file's lines of this peptide [4] | normalised SPOT signal, Boehringer light units (BLU); mean over the file's lines of this peptide [5] | normalised SPOT signal, Boehringer light units (BLU); mean over the file's lines of this peptide [6] | normalised SPOT signal, Boehringer light units (BLU); mean over the file's lines of this peptide [7] |
| --- | --- | --- | --- | --- | --- | --- | --- |
| VVPERVKPAPPVSR [YPR171W 231-244] | 53.2 | 2710 | 51.5 | 479 | 43 | 150 | 88 |
| YDLTRFLPNHPGGQ [YML054C 114-127] | 20.5 | 59.5 | 46.2 | 147 | 59.7 | 80.6 | 22.5 |
| VYRRKSIPFAPHQI [YFR032C 169-182] | 138 | 2560 | 47 | 183 | 135 | 383 | 70.7 |
| VWGPKPVPFQPMDV [YAL060W 292-305] | 112 | 479 | 247 | 1000 | 24.2 | 96.9 | 257 |
| WFILKLFPHEPIEG [YMR034C 292-305] | 43.8 | 12.8 | 30.6 | 1350 | 31.7 | 1270 | 131 |
| YAVGRIVPDSPTYD [YBL035C 295-308] | 127 | 87.3 | 33.2 | 159 | 39.9 | 189 | 257 |
| WFDLKGLPRQPEPL [YFL041W 550-563] | 278 | 78.2 | 409 | 4860 | 19600 | 102 | 201 |
| YAVDKIMPPTPAKK [YAL024C 308-321] | 71.5 | 44.9 | 2 | 512 | 112 | 110 | 22 |
